{"source": "patent US6893829B2", "about": "“Human leukocyte 12-lipoxygenase and its role in the pathogenesis of disease states” (City of Hope, priority 1992, dated 2005)", "key": {"[1]": {"test_system": "VEGF protein in MCF-7 cells", "experiment": "VEGF protein expression in breast cancer cells (immunoblot)", "assay_type": "cell-based, human", "conditions": "MCF-7, 24 hours", "protocol": "FIG. 8 illustrates the dose-dependent effect of platelet-derived growth factor (PDGF) on vascular endothelial growth factor (VEGF) protein (42 kD) expression in MCF-7 breast cancer cells. Nearly confluent MCF-7 cells were serum starved for 24 hours by placing in DME medium+0.4% FCS and 0.2% BSA. This medium was then freshly replaced and the cells incubated for another 24 hours with PDGF. At the end of the incubation, the cell monolayers were washed with ice-cold PBS, scraped into PBS and pelleted by centrifugation. The cell pellets were then lysed and equal amounts of protein (50 μg) subjected to electrophoresis and immunoblotting to detect VEGF using a specific antibody from Santa Cruz Biotechnology. Detection was by a chemiluminiscent technique.\nFIG. 9 illustrates the effect of epidermal growth factor (EGF) and the 12-lipoxygenase product 12-HETE on VEGF protein expression in the MCF-7 breast cancer cell line MCF-7. MCF-7 cells were treated with EGF and 12-HETE for 24 hours and VEGF protein identified as described in the legend to FIG. 8."}, "[2]": {"test_system": "12-LO activity in MCF-7 cells", "experiment": "12-HETE formation in MCF-7 cells", "conditions": "four hours, basal 257±10 pg/10^6 cells"}, "[3]": {"test_system": "leukocyte-type 12-LO in MCF-7 cells", "experiment": "12-LO protein and mRNA expression in MCF-7 cells", "conditions": "EGF 50 ng/ml, 24 hours"}}}
{"molecule": "EGF: Epidermal Growth Factor (protein, UniProt P01133 23-1207, looked up, Pro-epidermal growth factor) Pro-epidermal growth factor: PQHWSCPEGTLAGNGNSTCVGPAPFLIFSHGNSIFRIDTEGTNYEQLVVDAGVSVIMDFHYNEKRIYWVDLERQLLQRVFLNGSRQERVCNIEKNVSGMAINWINEEVIWSNQQEGIITVTDMKGNNSHILLSALKYPANVAVDPVERFIFWSSEVAGSLYRADLDGVGVKALLETSEKITAVSLDVLDKRLFWIQYNREGSNSLICSCDYDGGSVHISKHPTQHNLFAMSLFGDRIFYSTWKMKTIWIANKHTGKDMVRINLHSSFVPLGELKVVHPLAQPKAEDDTWEPEQKLCKLRKGNCSSTVCGQDLQSHLCMCAEGYALSRDRKYCEDVNECAFWNHGCTLGCKNTPGSYYCTCPVGFVLLPDGKRCHQLVSCPRNVSECSHDCVLTSEGPLCFCPEGSVLERDGKTCSGCSSPDNGGCSQLCVPLSPVSWECDCFPGYDLQLDEKSCAASGPQPFLLFANSQDIRHMHFDGTDYGTLLSQQMGMVYALDHDPVENKIYFAHTALKWIERANMDGSQRERLIEEGVDVPEGLAVDWIGRRFYWTDRGKSLIGRSDLNGKRSKIITKENISQPRGIAVHPMAKRLFWTDTGINPRIESSSLQGLGRLVIASSDLIWPSGITIDFLTDKLYWCDAKQSVIEMANLDGSKRRRLTQNDVGHPFAVAVFEDYVWFSDWAMPSVMRVNKRTGKDRVRLQGSMLKPSSLVVVHPLAKPGADPCLYQNGGCEHICKKRLGTAWCSCREGFMKASDGKTCLALDGHQLLAGGEVDLKNQVTPLDILSKTRVSEDNITESQHMLVAEIMVSDQDDCAPVGCSMYARCISEGEDATCQCLKGFAGDGKLCSDIDECEMGVPVCPPASSKCINTEGGYVCRCSEGYQGDGIHCLDIDECQLGEHSCGENASCTNTEGGYTCMCAGRLSEPGLICPDSTPPPHLREDDHHYSVRNSDSECPLSHDGYCLHDGVCMYIEALDKYACNCVVGYIGERCQYRDLKWWELRHAGHGQQQKVIVVAVCVVVLVMLLLLSLWGAHYYRTQKLLSKNPKNPYEESSRDVRSRRPADTEDGMSSCPQPWFVVIKEHQDLKNGGQPVAGEDGQAADGSMQPTSWRQEPQLCGMGTEQGCWIPVSSDKGSCPQVMERSFHMPSYGTQTLEGGVEKPHSLLSANPLWQQRALDPPHQMELTQ", "values": [{"measurement": "VEGF protein expression", "setting": "[1]", "value": "induced"}, {"measurement": "formation of 12-HETE", "setting": "[2]; serum-starved MCF-7, EGF 50 ng/ml", "value": "462 ± 15", "unit": "pg"}, {"measurement": "formation of 12-HETE", "setting": "[2]; serum-starved MCF-7, EGF 100 ng/ml", "value": "593 ± 46", "unit": "pg"}, {"measurement": "levels of 12-LO protein (72 kD) and 12-LO mRNA", "setting": "[3]", "value": "marked increase"}]}
